From patent US20210130436A1 (published 2021)
Substitutions are numbered along the chain they refer to. Names may count otherwise. Blank lines part the entries; values can stand above or below the binder they belong to.

Legend:
[1] = target: T1, CD226 (Homo sapiens (Human), UniProt Q15762 19-336); assay: flow cytometry, CD226-transfected Expi293 cells
T1 construct: Expressed on transfected cells
T1 sequence: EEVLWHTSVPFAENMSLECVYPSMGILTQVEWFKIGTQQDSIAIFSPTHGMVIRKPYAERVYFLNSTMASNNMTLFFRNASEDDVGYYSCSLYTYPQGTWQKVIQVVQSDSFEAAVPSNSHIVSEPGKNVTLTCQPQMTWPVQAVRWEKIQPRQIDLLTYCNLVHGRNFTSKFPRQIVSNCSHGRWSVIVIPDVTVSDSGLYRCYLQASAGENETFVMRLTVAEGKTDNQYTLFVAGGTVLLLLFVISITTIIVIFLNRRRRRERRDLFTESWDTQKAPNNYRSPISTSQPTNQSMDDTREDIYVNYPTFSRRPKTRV

[2] = target: T2, TIGIT (Homo sapiens (Human), UniProt Q495A1 23-244); assay: flow cytometry, TIGIT-transfected Expi293 cells
T2 construct: Expressed on transfected Expi293 cells; also called TIGIT tfxn
T2 sequence: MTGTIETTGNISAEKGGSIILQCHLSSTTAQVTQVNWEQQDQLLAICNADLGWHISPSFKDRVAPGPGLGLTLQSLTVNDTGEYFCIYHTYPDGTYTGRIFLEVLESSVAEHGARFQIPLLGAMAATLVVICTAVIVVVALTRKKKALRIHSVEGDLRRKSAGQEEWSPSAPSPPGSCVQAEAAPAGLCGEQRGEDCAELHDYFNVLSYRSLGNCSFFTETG

[3] = target: T3, human CD28, full length, expressed on transfected HEK293 cells (human, UniProt P10747 19-220); assay: flow cytometry, HEK293 cells transfected with human CD28
T3 construct: Full-length surface expression construct from Genscript

[4] = target: T4, human PD-L1 (human, UniProt Q9NZQ7 19-290); assay: flow cytometry on CHO cells stably expressing PD-L1; vs CD80 WT IgV-Fc
T4 construct: also called huPD-L1; CD274
T4 sequence (Q9NZQ7 19-290): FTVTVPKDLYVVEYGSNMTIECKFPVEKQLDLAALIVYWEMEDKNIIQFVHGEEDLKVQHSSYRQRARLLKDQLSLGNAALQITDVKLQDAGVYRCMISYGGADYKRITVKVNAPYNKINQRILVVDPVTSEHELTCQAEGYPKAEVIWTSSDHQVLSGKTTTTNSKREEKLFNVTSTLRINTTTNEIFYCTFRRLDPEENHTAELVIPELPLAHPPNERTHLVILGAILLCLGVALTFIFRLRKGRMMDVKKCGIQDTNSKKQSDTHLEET

[5] = target: T5, human CD28 (human, UniProt P10747 19-220); assay: flow cytometry on Jurkat cells (CD28); vs CD80 WT IgV-Fc
T5 construct: Endogenous CD28 on Jurkat/IL2 reporter cells

[6] = target: T4, human PD-L1; assay: cell-based or functional assay
[7] = target: T6, human CTLA-4 (human, UniProt P16410 36-223); assay: flow cytometry on CHO cells stably expressing CTLA4; vs CD80 WT IgV-Fc
T6 construct: also called huCTLA4
T6 sequence (P16410 36-223): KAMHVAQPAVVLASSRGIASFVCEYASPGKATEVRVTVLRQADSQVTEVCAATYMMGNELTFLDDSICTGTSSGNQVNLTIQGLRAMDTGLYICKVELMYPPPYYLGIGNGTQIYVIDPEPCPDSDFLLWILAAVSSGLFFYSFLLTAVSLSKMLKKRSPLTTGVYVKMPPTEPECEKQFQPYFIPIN

[8] = target: T4, human PD-L1; assay: flow cytometry; PD-L1 MFI over CD28 MFI
[9] = target: T7, human PD-L1, expressed on CHO cells (human, UniProt Q9NZQ7 19-290); assay: flow cytometry, CHO/PD-L1 cells, 33.3 nM; MFI relative to CD80 WT IgV-Fc
T7 construct: whole, on cells; also called huPD-L1; CD274
T7 sequence (Q9NZQ7 19-290): as the sequence (Q9NZQ7 19-290) above

[10] = target: T8, human CD28, endogenously expressed on Jurkat/IL2 reporter cells (human, UniProt P10747 19-220); assay: flow cytometry, Jurkat (CD28) cells, 33.3 nM; MFI relative to CD80 WT IgV-Fc
T8 construct: whole, on cells

[11] = target: T7, human PD-L1, expressed on CHO cells; assay: flow cytometry; MFI on PD-L1 cells over MFI on CD28 (Jurkat) cells, 33.3 nM
[12] = target: T9, human CTLA-4 (CTLA4), expressed on CHO cells (human, UniProt P16410 36-223); assay: flow cytometry, CHO/CTLA-4 cells, 33.3 nM; MFI relative to CD80 WT IgV-Fc
T9 construct: whole, on cells; also called huCTLA4
T9 sequence (P16410 36-223): as the sequence (P16410 36-223) above

[13] = target: T10, human PD-L1 (human, UniProt Q9NZQ7 19-290); assay: flow cytometry, CHO cells stably expressing huPD-L1, 33.3 nM, PE anti-human Fc
T10 construct: whole, on cells; also called huPD-L1
T10 sequence (Q9NZQ7 19-290): as the sequence (Q9NZQ7 19-290) above

[14] = target: T11, human CD28 (human, UniProt P10747 19-220); assay: flow cytometry, Jurkat/IL2 reporter cells (endogenous CD28), 33.3 nM, PE anti-human Fc
T11 construct: whole, on cells; Endogenous CD28 of Jurkat/IL2 reporter cells

[15] = target: T10, human PD-L1; assay: cell-based or functional assay; remark: listed apart in the source
[16] = target: T10, human PD-L1; assay: flow cytometry; MFI on CHO/PD-L1 over MFI on Jurkat (CD28), 33.3 nM
[17] = target: T12, human CTLA-4 (human, UniProt P16410 36-223); assay: flow cytometry, CHO cells stably expressing huCTLA4, 33.3 nM, PE anti-human Fc
T12 construct: whole, on cells; also called huCTLA4
T12 sequence (P16410 36-223): as the sequence (P16410 36-223) above

[18] = target: T13, human PD-L1, full length, expressed on transfected HEK293 cells (human, UniProt Q9NZQ7 19-290); assay: flow cytometry, HEK293 cells transfected with human PD-L1
T13 construct: Full-length surface expression construct from Genscript; also called CD274; B7-H1
T13 sequence (Q9NZQ7 19-290): as the sequence (Q9NZQ7 19-290) above

[19] = target: T14, human PD-L1, full-length, expressed on transfected HEK293 (Expi293F) cells (human, UniProt Q9NZQ7 19-290); assay: flow cytometry, Fc fusion on HEK293 cells transfected with full-length human PD-L1
T14 construct: whole, on cells; also called CD274; B7-H1
T14 sequence (Q9NZQ7 19-290): as above

[20] = target: T15, TIGIT (Homo sapiens (Human), UniProt Q495A1 23-244); assay: flow cytometry on TIGIT-transfected Expi293 cells
T15 construct: also called TIGIT tfxn
T15 sequence: T2 sequence

[21] = target: T15, TIGIT; assay: flow cytometry on TIGIT-transfected Expi293 cells; reference itself
[22] = target: T16, CD96 (UniProt P40200 22-585, limits assumed); assay: flow cytometry on CD96-expressing cells
T16 construct: whole, on cells
T16 sequence (looked up): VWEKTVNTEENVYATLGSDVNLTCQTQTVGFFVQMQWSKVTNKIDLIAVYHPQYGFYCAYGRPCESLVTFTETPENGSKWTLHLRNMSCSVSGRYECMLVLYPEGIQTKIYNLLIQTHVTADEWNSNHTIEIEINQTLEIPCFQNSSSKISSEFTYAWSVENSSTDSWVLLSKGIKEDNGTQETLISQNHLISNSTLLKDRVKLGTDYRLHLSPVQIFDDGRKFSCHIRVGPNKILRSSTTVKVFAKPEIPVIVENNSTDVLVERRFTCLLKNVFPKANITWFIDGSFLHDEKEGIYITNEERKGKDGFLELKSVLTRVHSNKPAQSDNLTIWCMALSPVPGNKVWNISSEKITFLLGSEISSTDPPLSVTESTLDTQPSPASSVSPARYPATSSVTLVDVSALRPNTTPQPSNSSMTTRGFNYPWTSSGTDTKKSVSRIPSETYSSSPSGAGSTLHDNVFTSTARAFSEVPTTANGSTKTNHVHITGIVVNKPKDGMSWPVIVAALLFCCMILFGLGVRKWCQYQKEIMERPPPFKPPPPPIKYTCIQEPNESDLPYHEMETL

[23] = target: T16, CD96; assay: flow cytometry on CD96-expressing cells; reference itself
[24] = target: T17, CD226 (Homo sapiens (Human), UniProt Q15762 19-336); assay: flow cytometry on CD226-transfected Expi293 cells; reference itself
T17 construct: also called CD226 tfxn
T17 sequence: T1 sequence

[25] = target: T17, CD226; assay: flow cytometry on CD226-transfected Expi293 cells
[26] = target: T18, TIGIT (UniProt Q495A1 22-244); assay: flow cytometry, MFI ratio to wildtype CD155 ECD-Fc, TIGIT cells
T18 construct: whole, on cells
T18 sequence (looked up): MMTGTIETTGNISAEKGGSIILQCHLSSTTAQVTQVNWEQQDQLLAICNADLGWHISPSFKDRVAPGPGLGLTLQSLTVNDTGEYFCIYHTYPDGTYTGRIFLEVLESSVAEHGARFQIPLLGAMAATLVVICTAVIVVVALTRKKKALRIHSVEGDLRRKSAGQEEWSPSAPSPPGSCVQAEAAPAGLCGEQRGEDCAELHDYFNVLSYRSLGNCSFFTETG

[27] = target: T18, TIGIT; assay: flow cytometry on cells expressing TIGIT, Fc fusion at 100 nM
[28] = target: T19, TIGIT (UniProt Q495A1 22-244); assay: flow cytometry, Fc fusion at 25 nM on cells expressing TIGIT
T19 construct: whole, on cells; Expressed on transfected cells
T19 sequence (looked up): T18 sequence (looked up)

[29] = target: T20, human PD-L1, expressed on cells (human, UniProt Q9NZQ7 19-290); assay: flow cytometry of live CD45- cells of digested hPD-L1 MC38 tumors after treatment in vivo, detection of the bound Fc protein (FIG. 15)
T20 construct: On CHO/PD-L1, K562/OKT3/PD-L1 and CHO/OKT3/PD-L1 aAPC, huPD-L1-transduced MC38 cells, or primary human monocytes; also called huPD-L1; hPD-L1
T20 sequence (Q9NZQ7 19-290): as the sequence (Q9NZQ7 19-290) above

- MFI [1]: 2000 MFI
- MFI [2]: 2920 MFI
B1: variant CD112 IgV-Fc S118Y (Fc fusion)
chain: QDVRVQVLPEVRGQLGGTVELPCHLLPPVPGLYISLVTWQRPDAPANHQNVAAFHPKMGPSFPSPKPGSERLSFVSAKQSTGQDTEAELQDATLALHGLTVEDEGNYTCEFATFPKGYVRGMTWLRV
notes: IgV-Fc fusion; not shown: linker and Fc

- MFI at 66.6 nM [3]: 3070 MFI
B2: WT CD80 ECD-Fc (inert) (Fc fusion, not shown: a dimerising Fc or GST)
chain: VIHVTKEVKEVATLSCGHNVSVEELAQTRIYWQKEKKMVLTMMSGDMNIWPEYKNRTIFDITNNLSIVILALRPSDEGTYECVVLKYEKDAFKREHLAEVTLSVKADFPTPSISDFEIPTSNIRRIICSTSGGFPEPHLSWLENGEELNAINTTVSQDPETELYAVSSKLDFNMTTNHSFMCLIKYGHLRVNQTFNWNTTKQEHFPDN
notes: also called wild-type CD80-ECD-Fc (inert)

- Fold change to WT CD80 [4]: 1 fold
- Fold change to WT CD80 [5]: 1 fold
- Fold Increase over WT CD80-IgV-Fc, Jurkat/IL2 + CHO/OKT3/PD-L1 Reporter Assay [6]: 1 fold
- Fold change to WT CD80 [7]: 1 fold
- Ratio of PDL1:CD28 [8]: 1.6 ratio
B3: wild-type CD80 IgV-Fc (inert), Example 15 (Fc fusion, not shown: a dimerising Fc or GST)
chain: VIHVTKEVKEVATLSCGHNVSVEELAQTRIYWQKEKKMVLTMMSGDMNIWPEYKNRTIFDITNNLSIVILALRPSDEGTYECVVLKYEKDAFKREHLAEVTLSVKAD
notes: Inert Fc fusion; also called CD80 WT IgV-Fc

- Fold change to WT CD80 [9]: 1 fold
- Fold change to WT CD80 [10]: 1 fold
- Ratio of PDL1:CD28 [11]: 1 ratio
- Fold change to WT CD80 [12]: 1 fold
B4: CD80 WT IgV-Fc (Fc fusion, not shown: small tags and cut ends; a dimerising Fc or GST)
chain: B3 chain
notes: also called wild-type CD80 IgV-Fc

- Fold change to WT [13]: 1 fold
- MFI at 33.3 nM [13]: 83 MFI
- Fold change to WT [14]: 1 fold
- MFI at 33.3 nM [14]: 41 MFI
- Fold Increase over WT CD80-IgV-Fc (Jurkat/IL2 + CHO/OKT3/PD-L1 reporter, 5.0 nM) [15]: 1 fold
- Ratio of PDL1:CD28 [16]: 2 ratio
- Fold change to WT CD80 [17]: 1 fold
- MFI at 33.3 nM [17]: 1030 MFI
B5: CD80 WT IgV-Fc (Fc fusion, not shown: a dimerising Fc or GST)
chain: B3 chain
notes: also called WT CD80-IgV-Fc; wild-type CD80 IgV-Fc

- MFI at 22.2 nM [18]: 1580 MFI
B6: variant CD80 IgV-Fc E35G/K54E/A71D/L72P (Fc fusion)
chain: B3 chain with E35G, K54E, A71D, L72P
notes: not shown: which one is

- MFI at 22.2 nM [19]: 6310 MFI
B7: variant CD80 IgV-Fc S44P/A71D (Fc fusion)
chain: B3 chain with S44P, A71D
notes: not shown: which was us

- MFI [20]: 2720 MFI
- MFI parental ratio [21]: 1 fold
- MFI [22]: 3080 MFI
- MFI parental ratio [23]: 1 fold
- MFI parental ratio [24]: 1 fold
- MFI [25]: 3720 MFI
B8: wild-type CD155 IgV-Fc (Fc fusion, not shown: a dimerising Fc or GST)
chain: WPPPGTGDVVVQAPTQVPGFLGDSVTLPCYLQVPNMEVTHVSQLTWARHGESGSMAVFHQTQGPSYSESKRLEFVAARLGAELRNASLRMFGLRVEDEGNYTCLFVTFPQGSRSVDIWLRVL

- Fold ↑ to WT ECD [26]: 0.01 fold
- MFI at 100 nM [27]: 4690 MFI
B9: CD155 IgV Fc (Fc fusion, not shown: a dimerising Fc or GST)
chain: B8 chain

- MFI at 25 nM [28]: 3000 MFI
B10: variant CD155 IgV-Fc V9L/V11M/P18S/N35S/S54G/Q62K/L79P/L104M/T107M/V115M (Fc fusion, not shown: a dimerising Fc or GST)
chain: B8 chain with V9L, V11M, P18S, N35S, S54G, Q62K, L79P, L104M, T107M, V115M
notes: also called V9L/V11M/P18S/N355/S54G/Q62K/L79P/L104M/T107M/V115M

- binding result [29]: binds
B11: CD80 variant E35D/M47L (SEQ ID NO: 208)-Fc (inert) (Fc fusion)
chain: VIHVTKEVKEVATLSCGHNVSVEELAQTRIYWQKDKKMVLTMMSGDLNIWPEYKNRTIFDITNNLSIVILALRPSDEGTYECVVLKYEKDAFKREHLAEVTLSVKADGSGGGGSEPKSSDKTHTCPPCPAPEAEGAPSVFLFPPKPKDTLMISRTPEVTCVVVDVSHEDPEVKFNWYVDGVEVHNAKTKPREEQYNSTYRVVSVLTVLHQDWLNGKEYKCKVSNKALPAPIEKTISKAKGQPREPQVYTLPPSREEMTKNQVSLTCLVKGFYPSDIAVEWESNGQPENNYKTTPPVLDSDGSFFLYSKLTVDKSRWQQGNVFSCSVMHEALHNHYTQKSLSLSPG
notes: also called E35D/M47L CD80-IgV-Fc; E35D/M47L CD80-Fc
